Columns and labels:
[1] = target: G-Ara h 2/6 (native Ara h 2/6 heated for 15 min to 110°C in the presence of 100 mM glucose); assay: SEC; Superdex-75 column on an Äkta Basic FPLC, calibrated with gel filtration molecular weight standards; Ara h 2/6 before and after heating for 15 min at 110°C in the presence or absence of glucose
[2] = target: H-Ara h 2/6 (native Ara h 2/6 heated for 15 min to 110°C alone); assay: as above

| Substance | percent of the protein remaining monomeric [1] | percent of the protein remaining monomeric [2] |
| --- | --- | --- |
| G-Ara h 2/6 (native Ara h 2/6 heated for 15 min to 110°C in the presence of 100 mM glucose) | 20% | – |
| H-Ara h 2/6 (native Ara h 2/6 heated for 15 min to 110°C alone) | – | 20% |

Source: paper PMC3162016
